{"source": "paper doi:10.1101/2021.04.04.438383", "about": "(bioRxiv, 2021)", "biological_target": "the molecule itself", "assay": "dynamic light scattering"}
{"protein": "recombinant Arc S67D, GST tag cleaved (natural protein) MELDHMTTGGLHAYPAPRGGPAAKPNVILQIGKCRAEMLEHVRRTHRHLLTEVSKQVERELKGLHRDVGKLENNLDGYVPTGDSQRWKKSIKACLCRCQETIANLERWVKREMHVWREVFYRLERWADRLESMGGKYPVGSEPARHTVSVGVGGPEPYCQEADGYDYTVSPYAITPPPAAGELPEQESVEAQQYQSWGPGEDGQPSPGVDTQIFEDPREFLSHLEEYLRQVGGSEEYWLSQIQNHMNGPAKKWWEFKQGSVKNWVEFKKEFLQYSEGTLSREAIQRELELPQKQGEPLDQFLWRKRDLYQTLYVDAEEEEIIQYVVGTLQPKLKRFLRHPLPKTLEQLIQRGMEVQDGLEQAAEPSGTPLPTEDETEALTPALTSESVASDRTQPE", "values": [{"measurement": "binding result", "result": "binds"}]}
{"protein": "recombinant Arc T278D, GST tag cleaved (natural protein) MELDHMTTGGLHAYPAPRGGPAAKPNVILQIGKCRAEMLEHVRRTHRHLLTEVSKQVERELKGLHRSVGKLENNLDGYVPTGDSQRWKKSIKACLCRCQETIANLERWVKREMHVWREVFYRLERWADRLESMGGKYPVGSEPARHTVSVGVGGPEPYCQEADGYDYTVSPYAITPPPAAGELPEQESVEAQQYQSWGPGEDGQPSPGVDTQIFEDPREFLSHLEEYLRQVGGSEEYWLSQIQNHMNGPAKKWWEFKQGSVKNWVEFKKEFLQYSEGDLSREAIQRELELPQKQGEPLDQFLWRKRDLYQTLYVDAEEEEIIQYVVGTLQPKLKRFLRHPLPKTLEQLIQRGMEVQDGLEQAAEPSGTPLPTEDETEALTPALTSESVASDRTQPE", "values": [{"measurement": "binding result", "result": "binds"}]}
